Substrate in this data set: CN(C)c1ccc(-c2cc[n+](C)cc2)cc1
The data set can be described thus: concentration-dependent fluorescent uptake, Lineweaver-Burk; blocked by nomifensine. Type of data set: cell-based, Mus musculus.

The source of these data is paper PMC5701296, “α-Synuclein-Dependent Calcium Entry Underlies Differential Sensitivity of Cultured SN and VTA Dopaminergic Neurons to a Parkinsonian Neurotoxin” (eNeuro, 2017).

B1: DA uptake transporter (DAT) (Mus musculus) (protein)
chain: MSKSKCSVGPMSSVVAPAKEPNAVGPREVELILVKEQNGVQLTNSTLINPPQTPVEVQERETWSKKIDFLLSVIGFAVDLANVWRFPYLCYKNGGGAFLVPYLLFMVIAGMPLFYMELALGQFNREGAAGVWKICPVLKGVGFTVILISFYVGFFYNVIIAWALHYFFSSFTMDLPWIHCNNTWNSPNCSDAHSSNSSDGLGLNDTFGTTPAAEYFERGVLHLHQSRGIDDLGPPRWQLTACLVLVIVLLYFSLWKGVKTSGKVVWITATMPYVVLTALLLRGVTLPGAMDGIRAYLSVDFYRLCEASVWIDAATQVCFSLGVGFGVLIAFSSYNKFTNNCYRDAIITTSINSLTSFSSGFVVFSFLGYMAQKHNVPIRDVATDGPGLIFIIYPEAIATLPLSSAWAAVFFLMLLTLGIDSAMGGMESVITGLVDEFQLLHRHRELFTLGIVLATFLLSLFCVTNGGIYVFTLLDHFAAGTSILFGVLIEAIGVAWFYGVQQFSDDIKQMTGQRPNLYWRLCWKLVSPCFLLYVVVVSIVTFRPPHYGAYIFPDWANALGWIIATSSMAMVPIYATYKFCSLPGSFREKLAYAITPEKDRQLVDRGEVRQFTLRHWLLV
notes: native transporter in cultured primary mouse SN and VTA dopaminergic neurons
Regarding B1, the Km stood at 16.9 ± 5.5 µM.
